In the supplement of paper PMC5998384:

Legend:
HeLa Kyoto [1] = experiment: solubility change mitosis vs G1/S (difference of NP-40 vs SDS log2 ratios) (log2 ratio difference); higher = more soluble in mitosis
HeLa Kyoto [2] = experiment: solubility in G1/S (NP-40 vs SDS abundance) (log2 ratio); higher = more soluble; conditions: cell cycle stage: G1/S
HeLa Kyoto [3] = experiment: thermal stability score vs G1/S (z-score of summed log2 fold changes over temperatures); higher = more thermally stable than in G1/S
HeLa Kyoto [4] = experiment: melting temperature (median over replicates), in situ; higher = more thermally stable
[5] = cell cycle stage: early G1 (4.5 h after nocodazole release)
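Throughout, for melting temperature (median over replicates), in situ: HeLa Kyoto cells synchronized by double thymidine or nocodazole block, proteins quantified by TMT10plex mass spectrometry, three independent biological replicates.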
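Throughout, for solubility change mitosis vs G1/S (difference of NP-40 vs SDS log2 ratios): synchronized HeLa Kyoto cells (double thymidine block for G1/S, nocodazole release for mitosis), protein amounts in NP-40 versus SDS lysates quantified by mass spectrometry, three biological replicates.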
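Throughout, for solubility in G1/S (NP-40 vs SDS abundance): HeLa Kyoto cells arrested at G1/S by double thymidine block, proteins quantified by TMT10plex mass spectrometry in mild NP-40 versus SDS extracts, three biological replicates.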
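Throughout, for thermal stability score vs G1/S (z-score of summed log2 fold changes over temperatures): synchronized HeLa Kyoto cells, proteins quantified by TMT10plex mass spectrometry, three biological replicates, mitosis taken 0.5 h after nocodazole release, G1/S directly after double thymidine block.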

| Sequence | solubility change mitosis (log2) (HeLa Kyoto [1]) | solubility in G1/S (log2) (HeLa Kyoto [2]) | thermal stability score (HeLa Kyoto [3]; [5]) | thermal stability score (HeLa Kyoto [3]; cell cycle stage: mitosis) | melting temperature (HeLa Kyoto [4]; cell cycle stage: G1/S) [°C] | melting temperature (HeLa Kyoto [4]; cell cycle stage: mitosis) [°C] |
| --- | --- | --- | --- | --- | --- | --- |
| MLGARAWLGRVLLLPRAGAGLAASRRGSSSRDKDRSATVSSSVPMPAGGKGSHPSSTPQRVPNRLIHEKSPYLLQHAYNPVDWYPWGQEAFDKARKENKPIFLSVGYSTCHWCHMMEEESFQNEEIGRLLSEDFVSVKVDREERPDVDKVYMTFVQATSSGGGWPMNVWLTPNLQPFVGGTYFPPEDGLTRVGFRTVLLRIREQWKQNKNTLLENSQRVTTALLARSEISVGDRQLPPSAATVNNRCFQQLDEGYDEEYGGFAEAPKFPTPVILSFLFSYWLSHRLTQDGSRAQQMALHTLKMMANGGIRDHVGQGFHRYSTDRQWHVPHFEKMLYDQAQLAVAYSQAFQLSGDEFYSDVAKGILQYVARSLSHRSGGFYSAEDADSPPERGQRPKEGAYYVWTVKEVQQLLPEPVLGATEPLTSGQLLMKHYGLTEAGNISPSQDPKGELQGQNVLTVRYSLELTAARFGLDVEAVRTLLNSGLEKLFQARKHRPKPHLDSKMLAAWNGLMVSGYAVTGAVLGQDRLINYATNGAKFLKRHMFDVASGRLMRTCYTGPGGTVEHSNPPCWGFLEDYAFVVRGLLDLYEASQESAWLEWALRLQDTQDKLFWDSQGGGYFCSEAELGAGLPLRLKDDQDGAEPSANSVSAHNLLRLHGFTGHKDWMDKCVCLLTAFSERMRRVPVALPEMVRALSAQQQTLKQIVICGDRQAKDTKALVQCVHSVYIPNKVLILADGDPSSFLSRQLPFLSTLRRLEDQATAYVCENQACSVPITDPCELRKLLHP [SPATA20] | -0.304 | 0.267 | 0.594 | 0.85 | 51.6 | 52.6 |
| MLGKGVVGGGGGTKAPKPSFVSYVRPEEIHTNEKEVTEKEVTLHLLPGEQLLCEASTVLKYVQEDSCQHGVYGRLVCTDFKIAFLGDDESALDNDETQFKNKVIGENDITLHCVDQIYGVFDEKKKTLFGQLKKYPEKLIIHCKDLRVFQFCLRYTKEEEVKRIVSGIIHHTQAPKLLKRLFLFSYATAAQNNTVTDPKNHTVMFDTLKDWCWELERTKGNMKYKAVSVNEGYKVCERLPAYFVVPTPLPEENVQRFQGHGIPIWCWSCHNGSALLKMSALPKEQDDGILQIQKSFLDGIYKTIHRPPYEIVKTEDLSSNFLSLQEIQTAYSKFKQLFLIDNSTEFWDTDIKWFSLLESSSWLDIIRRCLKKAIEITECMEAQNMNVLLLEENASDLCCLISSLVQLMMDPHCRTRIGFQSLIQKEWVMGGHCFLDRCNHLRQNDKEEVPVFLLFLDCVWQLVHQHPPAFEFTETYLTVLSDSLYIPIFSTFFFNSPHQKDTNMGREGQDTQSKPLNLLTVWDWSVQFEPKAQTLLKNPLYVEKPKLDKGQRKGMRFKHQRQLSLPLTQSKSSPKRGFFREETDHLIKNLLGKRISKLINSSDELQDNFREFYDSWHSKSTDYHGLLLPHIEGPEIKVWAQRYLRWIPEAQILGGGQVATLSKLLEMMEEVQSLQEKIDERHHSQQAPQAEAPCLLRNSARLSSLFPFALLQRHSSKPVLPTSGWKALGDEDDLAKREDEFVDLGDV [MTMR12] | -0.11 | -0.0977 | -0.744 | -0.447 | 56.1 | 56 |
| MLGVRCLLRSVRFCSSAPFPKHKPSAKLSVRDALGAQNASGERIKIQGWIRSVRSQKEVLFLHVNDGSSLESLQVVADSGLDSRELNFGSSVEVQGQLIKSPSKRQNVELKAEKIKVIGNCDAKDFPIKYKERHPLEYLRQYPHFRCRTNVLGSILRIRSEATAAIHSFFKDSGFVHIHTPIITSNDSEGAGELFQLEPSGKLKVPEENFFNVPAFLTVSGQLHLEVMSGAFTQVFTFGPTFRAENSQSRRHLAEFYMIEAEISFVDSLQDLMQVIEELFKATTMMVLSKCPEDVELCHKFIAPGQKDRLEHMLKNNFLIISYTEAVEILKQASQNFTFTPEWGADLRTEHEKYLVKHCGNIPVFVINYPLTLKPFYMRDNEDGPQHTVAAVDLLVPGVGELFGGGLREERYHFLEERLARSGLTEVYQWYLDLRRFGSVPHGGFGMGFERYLQCILGVDNIKDVIPFPRFPHSCLL [NARS2] | -0.147 | -0.141 | -0.169 | 1.1 | 49.7 | 49.8 |
| MLKAVILIGGPQKGTRFRPLSFEVPKPLFPVAGVPMIQHHIEACAQVPGMQEILLIGFYQPDEPLTQFLEAAQQEFNLPVRYLQEFAPLGTGGGLYHFRDQILAGSPEAFFVLNADVCSDFPLSAMLEAHRRQRHPFLLLGTTANRTQSLNYGCIVENPQTHEVLHYVEKPSTFISDIINCGIYLFSPEALKPLRDVFQRNQQDGQLEDSPGLWPGAGTIRLEQDVFSALAGQGQIYVHLTDGIWSQIKSAGSALYASRLYLSRYQDTHPERLAKHTPGGPWIRGNVYIHPTAKVAPSAVLGPNVSIGKGVTVGEGVRLRESIVLHGATLQEHTCVLHSIVGWGSTVGRWARVEGTPSDPNPNDPRARMDSESLFKDGKLLPAITILGCRVRIPAEVLILNSIVLPHKELSRSFTNQIIL [GMPPA] | -0.00526 | 0.0728 | 0.0726 | -3.01 | 54.4 | 53 |
| MLKPQPLQQPSQPQQPPPTQQAVARRPPGGTSPPNGGLPGPLATSAAPPGPPAAASPCLGPVAAAGSGLRRGAEGILAPQPPPPQQHQERPGAAAIGSARGQSTGKGPPQSPVFEGVYNNSRMLHFLTAVVGSTCDVKVKNGTTYEGIFKTLSSKFELAVDAVHRKASEPAGGPRREDIVDTMVFKPSDVMLVHFRNVDFNYATKDKFTDSAIAMNSKVNGEHKEKVLQRWEGGDSNSDDYDLESDMSNGWDPNEMFKFNEENYGVKTTYDSSLSSYTVPLEKDNSEEFRQRELRAAQLAREIESSPQYRLRIAMENDDGRTEEEKHSAVQRQGSGRESPSLASREGKYIPLPQRVREGPRGGVRCSSSRGGRPGLSSLPPRGPHHLDNSSPGPGSEARGINGGPSRMSPKAQRPLRGAKTLSSPSNRPSGETSVPPPPAVGRMYPPRSPKSAAPAPISASCPEPPIGSAVPTSSASIPVTSSVSDPGVGSISPASPKISLAPTDVKELSTKEPGRTLEPQELARIAGKVPGLQNEQKRFQLEELRKFGAQFKLQPSSSPENSLDPFPPRILKEEPKGKEKEVDGLLTSEPMGSPVSSKTESVSDKEDKPPLAPSGGTEGPEQPPPPCPSQTGSPPVGLIKGEDKDEGPVAEQVKKSTLNPNAKEFNPTKPLLSVNKSTSTPTSPGPRTHSTPSIPVLTAGQSGLYSPQYISYIPQIHMGPAVQAPQMYPYPVSNSVPGQQGKYRGAKGSLPPQRSDQHQPASAPPMMQAAAAAGPPLVAATPYSSYIPYNPQQFPGQPAMMQPMAHYPSQPVFAPMLQSNPRMLTSGSHPQAIVSSSTPQYPSAEQPTPQALYATVHQSYPHHATQLHAHQPQPATTPTGSQPQSQHAAPSPVQHQAGQAPHLGSGQPQQNLYHPGALTGTPPSLPPGPSAQSPQSSFPQPAAVYAIHHQQLPHGFTNMAHVTQAHVQTGITAAPPPHPGAPHPPQVMLLHPPQSHGGPPQGAVPQSGVPALSASTPSPYPYIGHPQGEQPGQAPGFPGGADDRIREFSLAGGIWHGRAEGLQVGQDARVLGGE [ATXN2L] | 0.367 | -0.0191 | -0.388 | -1.51 | 52.3 | 53.2 |
| MLLGGPPRSPRSGTSPKGPWSSTGHVQFGKSPQTWPRRTRPRSPEPAAPSGVRGSTWTRRRDSPRRAGPTALSRYVGHLWMGRRPPSPEARGPVPRSSAASRARRSLASPGISPGPLTATIGGAVAGGGPRQGRAEAHKEVFPGQRVGKMAAPMELFCWSGGWGLPSVDLDSLAVLTYARFTGAPLKVHKISNPWQSPSGTLPALRTSHGEVISVPHKIITHLRKEKYNADYDLSARQGADTLAFMSLLEEKLLPVLVHTFWIDTKNYVEVTRKWYAEAMPFPLNFFLPGRMQRQYMERLQLLTGEHRPEDEEELEKELYREARECLTLLSQRLGSQKFFFGDAPASLDAFVFSYLALLLQAKLPSGKLQVHLRGLHNLCAYCTHILSLYFPWDGAEVPPQRQTPAGPETEEEPYRRRNQILSVLAGLAAMVGYALLSGIVSIQRATPARAPGTRTLGMAEEDEEE [MTX1] | -0.12 | 0.309 | 0.166 | -0.623 | 52.8 | 52.4 |
| MLLKEYRICMPLTVDEYKIGQLYMISKHSHEQSDRGEGVEVVQNEPFEDPHHGNGQFTEKRVYLNSKLPSWARAVVPKIFYVTEKAWNYYPYTITEYTCSFLPKFSIHIETKYEDNKGSNDTIFDNEAKDVEREVCFIDIACDEIPERYYKESEDPKHFKSEKTGRGQLREGWRDSHQPIMCSYKLVTVKFEVWGLQTRVEQFVHKVVRDILLIGHRQAFAWVDEWYDMTMDEVREFERATQEATNKKIGIFPPAISISSIPLLPSSVRSAPSSAPSTPLSTDAPEFLSVPKDRPRKKSAPETLTLPDPEKKATLNLPGMHSSDKPCRPKSE [PITPNC1] | -0.0509 | -0.0542 | 0.0627 | -1.13 | 51.7 | 51.5 |
| MLLNGDCPESLKKEAAAAEPPRENGLDEAGPGDETTGQEVIVIQDTGFSVKILAPGIEPFSLQVSPQEMVQEIHQVLMDREDTCHRTCFSLHLDGNVLDHFSELRSVEGLQEGSVLRVVEEPYTVREARIHVRHVRDLLKSLDPSDAFNGVDCNSLSFLSVFTDGDLGDSGKRKKGLEMDPIDCTPPEYILPGSRERPLCPLQPQNRDWKPLQCLKVLTMSGWNPPPGNRKMHGDLMYLFVITAEDRQVSITASTRGFYLNQSTAYHFNPKPASPRFLSHSLVELLNQISPTFKKNFAVLQKKRVQRHPFERIATPFQVYSWTAPQAEHAMDCVRAEDAYTSRLGYEEHIPGQTRDWNEELQTTRELPRKNLPERLLRERAIFKVHSDFTAAATRGAMAVIDGNVMAINPSEETKMQMFIWNNIFFSLGFDVRDHYKDFGGDVAAYVAPTNDLNGVRTYNAVDVEGLYTLGTVVVDYRGYRVTAQSIIPGILERDQEQSVIYGSIDFGKTVVSHPRYLELLERTSRPLKILRHQVLNDRDEEVELCSSVECKGIIGNDGRHYILDLLRTFPPDLNFLPVPGEELPEECARAGFPRAHRHKLCCLRQELVDAFVEHRYLLFMKLAALQLMQQNASQLETPSSLENGGPSSLESKSEDPPGQEAGSEEEGSSASGLAKVKELAETIAADDGTDPRSREVIRNACKAVGSISSTAFDIRFNPDIFSPGVRFPESCQDEVRDQKQLLKDAAAFLLSCQIPGLVKDCMEHAVLPVDGATLAEVMRQRGINMRYLGKVLELVLRSPARHQLDHVFKIGIGELITRSAKHIFKTYLQGVELSGLSAAISHFLNCFLSSYPNPVAHLPADELVSKKRNKRRKNRPPGAADNTAWAVMTPQELWKNICQEAKNYFDFDLECETVDQAVETYGLQKITLLREISLKTGIQVLLKEYSFDSRHKPAFTEEDVLNIFPVVKHVNPKASDAFHFFQSGQAKVQQGFLKEGCELINEALNLFNNVYGAMHVETCACLRLLARLHYIMGDYAEALSNQQKAVLMSERVMGTEHPNTIQEYMHLALYCFASSQLSTALSLLYRARYLMLLVFGEDHPEMALLDNNIGLVLHGVMEYDLSLRFLENALAVSTKYHGPKALKVALSHHLVARVYESKAEFRSALQHEKEGYTIYKTQLGEDHEKTKESSEYLKCLTQQAVALQRTMNEIYRNGSSANIPPLKFTAPSMASVLEQLNVINGILFIPLSQKDLENLKAEVARRHQLQEASRNRDRAEEPMATEPAPAGAPGDLGSQPPAAKDPSPSVQG [CLUH] | -0.119 | -0.0434 | 0.526 | -0.315 | 51.1 | 50.1 |
| MLPNTGRLAGCTVFITGASRGIGKAIALKAAKDGANIVIAAKTAQPHPKLLGTIYTAAEEIEAVGGKALPCIVDVRDEQQISAAVEKAIKKFGGIDILVNNASAISLTNTLDTPTKRLDLMMNVNTRGTYLASKACIPYLKKSKVAHILNISPPLNLNPVWFKQHCAYTIAKYGMSMYVLGMAEEFKGEIAVNALWPKTAIHTAAMDMLGGPGIESQCRKVDIIADAAYSIFQKPKSFTGNFVIDENILKEEGIENFDVYAIKPGHPLQPDFFLDEYPEAVSKKVESTGAVPEFKEEKLQLQPKPRSGAVEETFRIVKDSLSDDVVKATQAIYLFELSGEDGGTWFLDLKSKGGNVGYGEPSDQADVVMSMTTDDFVKMFSGKLKPTMAFMSGKLKIKGNMALAIKLEKLMNQMNARL [HSDL2] | -0.109 | 0.296 | -0.828 | 0.589 | 51.5 | 52.5 |
